Laboratory results taken from paper doi:10.1101/2020.05.18.103002 (bioRxiv, 2020).
Where no end group is shown, it is not given here.

B1: FITC-conjugated PAK1 peptide (DIQDKPPAPPMRNTST) (peptide)
peptide: DIQDKPPAPPMRNTST
modifications: also: FITC-conjugated, site not given here
B2: FITC-conjugated CD3ε peptide (RGQNKERPPPVPNPDY) (peptide)
peptide: RGQNKERPPPVPNPDY
modifications: also: FITC-conjugated, site not given here

Tests used:
Experiment in all cases: fluorescence polarisation
[1] = target: FITC-conjugated CD3ε peptide (…)
[2] = target: FITC-conjugated PAK1 peptide (…)
[3] = target: NCK2 full length recombinant protein (WT, tag-free) (mouse, UniProt O55033 1-380)

Molecule	fold decrease of binding against WT NCK2 [1] [fold]	binding result [3]	further results
NCK2 2|3|1 full length recombinant protein (SH3-shuffled, tag-free) (from UniProt O55033)	2		
NCK2 3|1|2 full length recombinant protein (SH3-shuffled, tag-free) (from UniProt O55033)			fold decrease of binding against WT NCK2 [2]: 2 fold
NCK2 3|2|1 full length recombinant protein (SH3-shuffled, tag-free) (from UniProt O55033)	2		
B1		binds	
B2		binds	
